Reference: PMC13031426

Target: Complex III (cytochrome bc1 complex) dimer of the ΔQCR6 yeast supercomplex (Saccharomyces cerevisiae) (UniProt P07143)
Experiment: cryo-EM structure

Substance “Complex III (cytochrome bc1 complex) dimer of the ΔQCR6 yeast supercomplex (from UniProt P07143 62-309)” has a stoichiometry N of 2.
